Measured values reported in article PMC12643800.

How the values were obtained:
[1] = molecular target: commercially available asparaginase Ec-AsnB (MEDAC, Germany) (E. coli) (UniProt P00805); test: SEC; Superdex 200 Increase 10/300 GL on FPLC, 0.5 ml/min, 150 ug protein loaded; molecular mass from a calibration curve with carbonic anhydrase, ovalbumin, conalbumin and aldolase; proteins loaded individually
[2] = molecular target: Escherichia coli L-asparaginase II (AsnB) expressed in and secreted from Corynebacterium glutamicum (E. coli K-12) (UniProt P00805); test: as above

Substance	stoichiometry N [1]	stoichiometry N [2]
commercially available asparaginase Ec-AsnB (MEDAC, Germany) (from UniProt P00805 23-348) (enzyme)	4	
Escherichia coli L-asparaginase II (AsnB) expressed in and secreted from Corynebacterium glutamicum (from UniProt P00805 23-348) (enzyme)		4
